Reference: the RNAGym collection of RNA variant scans (doi:10.1093/molbev/msab373)

B1: Azoarcus group I ribozyme (parent)
chain: GUGCCUUGCGCCGGGAAACCACGCAAGGGAUGGUGUCAAAUUCGGCGAAACCUAAGCGCCCGCCCGGGCGUAUGGCAACGCCGAGCCAAGCUUCGGCGCCUGCGCCGAUGAAGGUGUAGAGACUAGACGGCACCCACCUAAGGCAAACGCUAUGGUGAAGGCAUAGUCCAGGGAGUGGCGAAAGUCACACAAACCGG

Variants of: B1
Experiment: reverse-splicing fitness (ratio to wild type); higher = more active; in vitro selection; Mg2+ level not given
Procedure, shortened: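 An in vitro group I ribozyme library with randomized positions was T7-transcribed and gel-purified. In triplicate, 10 pmol RNA in EPPS pH 7.5 was reacted with 50 pmoles of a 30-nt RNA substrate for 1 h at 37 °C across several added MgCl2 levels (1–48 mM), then stopped with EDTA. Products were reverse transcribed from a substrate-complementary primer, PCR-amplified and sequenced (HiSeq 4000). Fitness is a variant's read proportion after selection over that before, normalised to wild type.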

Question: With GUGCCUUGCGCCGGGAAACCACGCAAGGGAUGGUGUCAAAUUCGGCGAAACCUAAGCGCCCGCCCGGGCGUAUGGCAACGCUGAGCCAAGCUUCGGCGCCUGCGCCGAUGAAGGUGUAGGGACUAGACGGCACCCACCUAAGGCUAACGAUAUGGUGAAGGCAUAGUCCAGGGAGCGGCGAAAGUCACACAAACCGG [C82U A120G A145U C150A U176C] as the variant, how does the reverse-splicing fitness read?
Answer: The reverse-splicing fitness was 0.0109.

Question: With GUGCCUUGCGCCGGGAAACCACGCAAGGGAUGGUGUCAAAUUCGGCGAAACCUAAGCGCCCGCCCGGGCGUAUGGCAACGCUGAGCCAAGCUUCGGCGCCUGCGCCGAUGAAGGUGUAGGGACUAGACGGCACCCACCUAAGGCUAACGAUAUGGUGAAGGCAUAGUCCAGGGAGGGGCGAAAGUCACACAAACCGG [C82U A120G A145U C150A U176G] as the variant, how does the reverse-splicing fitness read?
Answer: Its reverse-splicing fitness is 0.00337.

Question: With GUGCCUUGCGCCGGGAAACCACGCAAGGGAUGGUGUCAAAUUCGGCGAAACCUAAGCGCCCGCCCGGGCGUAUGGCAACGCUGAGCCAAGCUUCGGCGCCUGCGCCGAUGAAGGUGUAGGGACUAGACGGCACCCACCUAAGGCUAACGGUAUGGUGAAGGCAUAGUCCAGGGAGUGGCGAAAGUCACACAAACCGG [C82U A120G A145U C150G] as the variant, how does the reverse-splicing fitness read?
Answer: Its reverse-splicing fitness is 0.00697.

Question: For GUGCCUUGCGCCGGGAAACCACGCAAGGGAUGGUGUCAAAUUCGGCGAAACCUAAGCGCCCGCCCGGGCGUAUGGCAACGCUGAGCCAAGCUUCGGCGCCUGCGCCGAUGAAGGUGUAGGGACUAGACGGCACCCACCUAAGGCUAACGGUAUGGUGAAGGCAUAGUCAAGGGAGUGGCGAAAGUCACACAAACCGG [C82U A120G A145U C150G C169A], which reverse-splicing fitness is on record?
Answer: Its reverse-splicing fitness is 0.00915.

Question: With GUGCCUUGCGCCGGGAAACCACGCAAGGGAUGGUGUCAAAUUCGGCGAAACCUAAGCGCCCGCCCGGGCGUAUGGCAACGCUGAGCCAAGCUUCGGCGCCUGCGCCGAUGAAGGUGUAGGGACUAGACGGCACCCACCUAAGGCUAACGGUAUGGUGAAGGCAUAGUCAAGGGAGAGGCGAAAGUCACACAAACCGG [C82U A120G A145U C150G C169A U176A] as the variant, how does the reverse-splicing fitness read?
Answer: The reverse-splicing fitness was 0.00927.

Question: For GUGCCUUGCGCCGGGAAACCACGCAAGGGAUGGUGUCAAAUUCGGCGAAACCUAAGCGCCCGCCCGGGCGUAUGGCAACGCUGAGCCAAGCUUCGGCGCCUGCGCCGAUGAAGGUGUAGGGACUAGACGGCACCCACCUAAGGCUAACGGUAUGGUGAAGGCAUAGUCAAGGGAGCGGCGAAAGUCACACAAACCGG [C82U A120G A145U C150G C169A U176C], which reverse-splicing fitness is on record?
Answer: Its reverse-splicing fitness is 0.00949.

Question: Which reverse-splicing fitness does the source give for GUGCCUUGCGCCGGGAAACCACGCAAGGGAUGGUGUCAAAUUCGGCGAAACCUAAGCGCCCGCCCGGGCGUAUGGCAACGCUGAGCCAAGCUUCGGCGCCUGCGCCGAUGAAGGUGUAGGGACUAGACGGCACCCACCUAAGGCUAACGGUAUGGUGAAGGCAUAGUCAAGGGAGGGGCGAAAGUCACACAAACCGG [C82U A120G A145U C150G C169A U176G] here?
Answer: The reverse-splicing fitness was 0.00411.

Question: Which reverse-splicing fitness does the source give for GUGCCUUGCGCCGGGAAACCACGCAAGGGAUGGUGUCAAAUUCGGCGAAACCUAAGCGCCCGCCCGGGCGUAUGGCAACGCUGAGCCAAGCUUCGGCGCCUGCGCCGAUGAAGGUGUAGGGACUAGACGGCACCCACCUAAGGCUAACGGUAUGGUGAAGGCAUAGUCGAGGGAGUGGCGAAAGUCACACAAACCGG [C82U A120G A145U C150G C169G] here?
Answer: The reverse-splicing fitness was 0.00815.

Question: With GUGCCUUGCGCCGGGAAACCACGCAAGGGAUGGUGUCAAAUUCGGCGAAACCUAAGCGCCCGCCCGGGCGUAUGGCAACGCUGAGCCAAGCUUCGGCGCCUGCGCCGAUGAAGGUGUAGGGACUAGACGGCACCCACCUAAGGCUAACGGUAUGGUGAAGGCAUAGUCGAGGGAGAGGCGAAAGUCACACAAACCGG [C82U A120G A145U C150G C169G U176A] as the variant, how does the reverse-splicing fitness read?
Answer: Its reverse-splicing fitness is 0.00669.

Question: For GUGCCUUGCGCCGGGAAACCACGCAAGGGAUGGUGUCAAAUUCGGCGAAACCUAAGCGCCCGCCCGGGCGUAUGGCAACGCUGAGCCAAGCUUCGGCGCCUGCGCCGAUGAAGGUGUAGGGACUAGACGGCACCCACCUAAGGCUAACGGUAUGGUGAAGGCAUAGUCGAGGGAGCGGCGAAAGUCACACAAACCGG [C82U A120G A145U C150G C169G U176C], which reverse-splicing fitness is on record?
Answer: The reverse-splicing fitness was 0.00534.

Question: For GUGCCUUGCGCCGGGAAACCACGCAAGGGAUGGUGUCAAAUUCGGCGAAACCUAAGCGCCCGCCCGGGCGUAUGGCAACGCUGAGCCAAGCUUCGGCGCCUGCGCCGAUGAAGGUGUAGGGACUAGACGGCACCCACCUAAGGCUAACGGUAUGGUGAAGGCAUAGUCGAGGGAGGGGCGAAAGUCACACAAACCGG [C82U A120G A145U C150G C169G U176G], which reverse-splicing fitness is on record?
Answer: Its reverse-splicing fitness is 0.00361.

Question: For GUGCCUUGCGCCGGGAAACCACGCAAGGGAUGGUGUCAAAUUCGGCGAAACCUAAGCGCCCGCCCGGGCGUAUGGCAACGCUGAGCCAAGCUUCGGCGCCUGCGCCGAUGAAGGUGUAGGGACUAGACGGCACCCACCUAAGGCUAACGGUAUGGUGAAGGCAUAGUCUAGGGAGUGGCGAAAGUCACACAAACCGG [C82U A120G A145U C150G C169U], which reverse-splicing fitness is on record?
Answer: Its reverse-splicing fitness is 0.00878.

Question: With GUGCCUUGCGCCGGGAAACCACGCAAGGGAUGGUGUCAAAUUCGGCGAAACCUAAGCGCCCGCCCGGGCGUAUGGCAACGCUGAGCCAAGCUUCGGCGCCUGCGCCGAUGAAGGUGUAGGGACUAGACGGCACCCACCUAAGGCUAACGGUAUGGUGAAGGCAUAGUCUAGGGAGAGGCGAAAGUCACACAAACCGG [C82U A120G A145U C150G C169U U176A] as the variant, how does the reverse-splicing fitness read?
Answer: The reverse-splicing fitness was 0.0132.

Question: Which reverse-splicing fitness does the source give for GUGCCUUGCGCCGGGAAACCACGCAAGGGAUGGUGUCAAAUUCGGCGAAACCUAAGCGCCCGCCCGGGCGUAUGGCAACGCUGAGCCAAGCUUCGGCGCCUGCGCCGAUGAAGGUGUAGGGACUAGACGGCACCCACCUAAGGCUAACGGUAUGGUGAAGGCAUAGUCUAGGGAGCGGCGAAAGUCACACAAACCGG [C82U A120G A145U C150G C169U U176C] here?
Answer: Its reverse-splicing fitness is 0.0108.

Question: With GUGCCUUGCGCCGGGAAACCACGCAAGGGAUGGUGUCAAAUUCGGCGAAACCUAAGCGCCCGCCCGGGCGUAUGGCAACGCUGAGCCAAGCUUCGGCGCCUGCGCCGAUGAAGGUGUAGGGACUAGACGGCACCCACCUAAGGCUAACGGUAUGGUGAAGGCAUAGUCUAGGGAGGGGCGAAAGUCACACAAACCGG [C82U A120G A145U C150G C169U U176G] as the variant, how does the reverse-splicing fitness read?
Answer: Its reverse-splicing fitness is 0.0036.
